In article PMC3351183 (Nucleic Acids Research, 2012):

B1: GB1_HP0315 (HP0315, a VapD protein from Helicobacter pylori, fused with the immunoglobulin-binding domain of streptococcal protein G) (natural protein, Helicobacter pylori 26695)
chain: MYALAFDLKIEILKKEYGEPYNKAYDDLRQELELLGFEWTQGSVYVNYSKENTLAQVYKAINKLSQIEWFKKSVRDIRAFKVEDFSDFTEIVKS
B2: SeMet-substituted GB1_HP0315 (natural protein, Helicobacter pylori 26695)
chain: B1 chain
modifications: selenomethionine in place of methionine (first methionine residue of GB1 and the methionine residue of HP0315)

Legend:
[1] = molecular target: the molecule itself; experiment: SEC
[2] = molecular target: the molecule itself; experiment: crystal structure

Protein	stoichiometry N [1]	binding result [2]
B1	2	
B2		binds
